Test results: the supplement of paper PMC10065799, “High-throughput profiling of sequence recognition by tyrosine kinases and SH2 domains using bacterial peptide display” (eLife, 2023)

Assays:
[1] = biological target: SHP2-C SH2; test: SH2 binding enrichment of the phosphorylated peptide, bacterial display (enrichment ratio); higher = better substrate or ligand; peptides without Tyr show the background
[2] = biological target: Grb2 SH2 (UniProt P62993); test: as above
[3] = biological target: c-Src SH2; test: as above
[4] = system: c-Src; test: phosphorylation enrichment, bacterial display (enrichment ratio); higher = better substrate or ligand; peptides without Tyr show the background
[5] = biological target: EPHB1 (UniProt P54762); test: as above
[6] = biological target: Fyn (UniProt P06241); test: as above
Chain of Fyn (P06241 whole entry, looked up): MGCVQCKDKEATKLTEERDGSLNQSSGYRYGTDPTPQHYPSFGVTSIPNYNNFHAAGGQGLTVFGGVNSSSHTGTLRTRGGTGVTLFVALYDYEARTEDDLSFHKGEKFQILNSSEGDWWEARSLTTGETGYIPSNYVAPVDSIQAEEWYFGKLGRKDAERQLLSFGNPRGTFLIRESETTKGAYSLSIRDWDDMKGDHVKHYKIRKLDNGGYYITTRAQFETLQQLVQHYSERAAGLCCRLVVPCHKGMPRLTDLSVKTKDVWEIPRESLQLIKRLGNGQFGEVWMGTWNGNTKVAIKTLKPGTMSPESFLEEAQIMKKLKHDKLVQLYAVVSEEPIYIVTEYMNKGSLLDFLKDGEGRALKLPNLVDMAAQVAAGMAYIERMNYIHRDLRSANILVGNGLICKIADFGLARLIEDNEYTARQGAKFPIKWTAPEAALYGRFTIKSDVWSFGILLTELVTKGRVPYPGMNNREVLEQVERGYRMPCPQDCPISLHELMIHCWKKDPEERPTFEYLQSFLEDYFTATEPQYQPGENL

[7] = biological target: EPHB2 (UniProt P29323); test: as above
Chain of EPHB2 (P29323 whole entry, looked up): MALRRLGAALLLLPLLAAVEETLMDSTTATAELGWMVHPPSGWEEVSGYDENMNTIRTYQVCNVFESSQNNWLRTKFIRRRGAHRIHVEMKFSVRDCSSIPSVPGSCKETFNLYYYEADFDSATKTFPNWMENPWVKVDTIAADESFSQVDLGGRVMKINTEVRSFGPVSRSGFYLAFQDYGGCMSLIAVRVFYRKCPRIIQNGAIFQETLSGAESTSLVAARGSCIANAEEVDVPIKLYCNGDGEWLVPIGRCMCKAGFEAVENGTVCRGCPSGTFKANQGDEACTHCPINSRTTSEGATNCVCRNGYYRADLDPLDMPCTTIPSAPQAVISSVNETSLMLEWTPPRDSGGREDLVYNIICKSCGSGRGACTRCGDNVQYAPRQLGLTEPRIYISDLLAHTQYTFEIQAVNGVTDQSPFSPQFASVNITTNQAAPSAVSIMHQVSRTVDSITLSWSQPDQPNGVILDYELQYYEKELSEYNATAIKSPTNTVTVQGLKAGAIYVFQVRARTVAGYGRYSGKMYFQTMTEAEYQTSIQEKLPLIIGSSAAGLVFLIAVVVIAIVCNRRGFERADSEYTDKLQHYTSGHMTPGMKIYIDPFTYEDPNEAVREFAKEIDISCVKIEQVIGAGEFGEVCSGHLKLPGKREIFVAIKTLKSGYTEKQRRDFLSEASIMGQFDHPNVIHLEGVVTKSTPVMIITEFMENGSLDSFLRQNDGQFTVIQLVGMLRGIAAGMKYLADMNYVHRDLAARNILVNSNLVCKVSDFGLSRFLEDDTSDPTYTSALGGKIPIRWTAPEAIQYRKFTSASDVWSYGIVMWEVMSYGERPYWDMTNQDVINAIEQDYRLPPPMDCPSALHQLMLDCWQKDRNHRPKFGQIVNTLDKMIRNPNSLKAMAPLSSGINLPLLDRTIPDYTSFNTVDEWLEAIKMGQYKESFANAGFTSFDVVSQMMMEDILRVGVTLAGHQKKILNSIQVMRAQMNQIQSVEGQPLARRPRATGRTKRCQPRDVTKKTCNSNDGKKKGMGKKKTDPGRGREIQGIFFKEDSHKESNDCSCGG

[8] = system: Fer (mouse); test: as above
[9] = biological target: FGFR1 (UniProt P11362); test: as above
Chain of FGFR1 (P11362 whole entry, looked up): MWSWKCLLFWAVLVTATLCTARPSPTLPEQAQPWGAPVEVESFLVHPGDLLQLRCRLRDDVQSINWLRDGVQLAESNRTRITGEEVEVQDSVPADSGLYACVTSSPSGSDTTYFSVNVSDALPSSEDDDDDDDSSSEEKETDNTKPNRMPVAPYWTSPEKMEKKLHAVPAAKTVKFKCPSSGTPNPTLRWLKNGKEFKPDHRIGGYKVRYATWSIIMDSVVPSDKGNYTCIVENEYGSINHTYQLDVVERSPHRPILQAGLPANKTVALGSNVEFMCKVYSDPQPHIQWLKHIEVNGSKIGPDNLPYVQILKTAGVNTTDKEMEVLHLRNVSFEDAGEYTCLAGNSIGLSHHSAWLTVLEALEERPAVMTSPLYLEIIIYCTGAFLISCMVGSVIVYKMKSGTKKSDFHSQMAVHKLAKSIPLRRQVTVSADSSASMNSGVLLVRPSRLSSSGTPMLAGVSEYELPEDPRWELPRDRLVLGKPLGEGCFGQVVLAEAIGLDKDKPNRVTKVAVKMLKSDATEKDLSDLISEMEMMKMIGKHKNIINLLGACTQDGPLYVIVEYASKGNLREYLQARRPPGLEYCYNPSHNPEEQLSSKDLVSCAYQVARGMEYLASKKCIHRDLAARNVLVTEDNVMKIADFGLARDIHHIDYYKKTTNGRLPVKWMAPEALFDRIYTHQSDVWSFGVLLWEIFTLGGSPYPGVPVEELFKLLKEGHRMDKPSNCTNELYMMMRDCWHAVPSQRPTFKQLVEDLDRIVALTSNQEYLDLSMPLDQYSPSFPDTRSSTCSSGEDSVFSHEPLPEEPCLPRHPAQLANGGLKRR

[10] = biological target: Hck (UniProt P08631); test: as above
Chain of Hck (P08631 whole entry, looked up): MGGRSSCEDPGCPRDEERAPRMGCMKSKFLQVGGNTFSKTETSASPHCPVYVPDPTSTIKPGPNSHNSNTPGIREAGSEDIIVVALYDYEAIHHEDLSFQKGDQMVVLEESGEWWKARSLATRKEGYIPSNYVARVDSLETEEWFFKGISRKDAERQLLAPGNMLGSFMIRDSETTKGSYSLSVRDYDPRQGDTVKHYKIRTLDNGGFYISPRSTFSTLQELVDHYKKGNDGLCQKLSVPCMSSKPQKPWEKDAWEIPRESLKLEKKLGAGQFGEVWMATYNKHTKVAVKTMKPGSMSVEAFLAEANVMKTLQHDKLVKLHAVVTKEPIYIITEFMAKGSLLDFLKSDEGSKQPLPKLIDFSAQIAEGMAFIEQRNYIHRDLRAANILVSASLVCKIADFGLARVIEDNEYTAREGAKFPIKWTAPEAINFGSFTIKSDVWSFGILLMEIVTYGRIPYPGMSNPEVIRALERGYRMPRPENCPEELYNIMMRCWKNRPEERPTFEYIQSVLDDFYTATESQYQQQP

[11] = biological target: Jak2 (UniProt O60674); test: as above
Chain of Jak2 (O60674 whole entry, looked up): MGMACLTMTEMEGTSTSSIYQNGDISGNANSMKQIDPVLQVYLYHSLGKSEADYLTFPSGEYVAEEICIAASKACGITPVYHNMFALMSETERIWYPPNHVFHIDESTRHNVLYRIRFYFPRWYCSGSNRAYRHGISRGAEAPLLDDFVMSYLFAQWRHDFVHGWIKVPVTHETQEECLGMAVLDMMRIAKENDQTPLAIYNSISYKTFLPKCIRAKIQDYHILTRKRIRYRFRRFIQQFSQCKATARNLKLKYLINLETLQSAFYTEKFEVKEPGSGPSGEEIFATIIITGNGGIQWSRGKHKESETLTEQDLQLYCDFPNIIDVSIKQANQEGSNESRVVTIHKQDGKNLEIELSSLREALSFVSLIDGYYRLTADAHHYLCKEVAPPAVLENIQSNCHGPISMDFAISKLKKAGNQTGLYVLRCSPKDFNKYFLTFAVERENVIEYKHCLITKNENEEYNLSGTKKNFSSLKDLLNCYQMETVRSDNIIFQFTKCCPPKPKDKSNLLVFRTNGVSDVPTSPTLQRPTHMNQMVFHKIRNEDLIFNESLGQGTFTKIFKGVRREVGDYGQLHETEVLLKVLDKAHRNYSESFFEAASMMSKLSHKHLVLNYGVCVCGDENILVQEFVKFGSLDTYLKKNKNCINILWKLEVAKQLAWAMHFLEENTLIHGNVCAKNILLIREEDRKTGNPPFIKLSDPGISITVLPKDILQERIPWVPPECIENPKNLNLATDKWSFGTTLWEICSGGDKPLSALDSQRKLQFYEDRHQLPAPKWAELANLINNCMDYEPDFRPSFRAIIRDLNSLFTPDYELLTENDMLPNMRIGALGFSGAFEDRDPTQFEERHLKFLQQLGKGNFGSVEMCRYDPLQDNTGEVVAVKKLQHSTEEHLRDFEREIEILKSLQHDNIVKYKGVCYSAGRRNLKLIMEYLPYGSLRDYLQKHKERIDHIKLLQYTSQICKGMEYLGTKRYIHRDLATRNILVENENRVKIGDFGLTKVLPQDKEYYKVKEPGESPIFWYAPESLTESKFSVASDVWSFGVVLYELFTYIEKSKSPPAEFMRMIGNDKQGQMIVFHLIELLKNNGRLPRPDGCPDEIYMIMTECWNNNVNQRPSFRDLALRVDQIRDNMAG

[12] = system: AncSZ; test: as above
[13] = system: c-Abl (mouse); test: as above
[14] = biological target: MERTK (UniProt Q12866); test: as above
[15] = biological target: FGFR3 (UniProt P22607); test: as above
Chain of FGFR3 (P22607 whole entry, looked up): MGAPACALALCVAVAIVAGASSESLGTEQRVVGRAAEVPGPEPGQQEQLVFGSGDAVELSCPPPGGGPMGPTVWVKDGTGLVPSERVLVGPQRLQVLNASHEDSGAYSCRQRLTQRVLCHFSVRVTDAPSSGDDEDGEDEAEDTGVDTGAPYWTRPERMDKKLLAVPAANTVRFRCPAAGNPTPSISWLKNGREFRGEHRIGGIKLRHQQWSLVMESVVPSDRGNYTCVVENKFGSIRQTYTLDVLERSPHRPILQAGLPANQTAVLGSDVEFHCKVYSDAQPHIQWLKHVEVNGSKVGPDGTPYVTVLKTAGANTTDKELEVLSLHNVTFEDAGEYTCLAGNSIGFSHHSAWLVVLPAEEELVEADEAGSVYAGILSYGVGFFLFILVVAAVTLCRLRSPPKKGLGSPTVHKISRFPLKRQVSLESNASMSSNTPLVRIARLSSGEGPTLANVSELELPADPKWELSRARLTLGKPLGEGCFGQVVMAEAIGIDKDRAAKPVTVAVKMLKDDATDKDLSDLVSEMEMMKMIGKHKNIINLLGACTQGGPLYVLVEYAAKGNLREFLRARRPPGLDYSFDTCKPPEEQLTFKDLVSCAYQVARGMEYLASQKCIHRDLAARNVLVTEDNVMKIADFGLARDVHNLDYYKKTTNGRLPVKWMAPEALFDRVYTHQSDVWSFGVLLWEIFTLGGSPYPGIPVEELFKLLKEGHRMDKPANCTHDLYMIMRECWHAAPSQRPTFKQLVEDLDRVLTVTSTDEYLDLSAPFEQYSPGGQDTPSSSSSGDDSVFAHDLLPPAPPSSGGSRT

[16] = biological target: Fes (UniProt P07332); test: as above
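Throughout, for SH2 binding enrichment of the phosphorylated peptide, bacterial display: peptide library displayed on the E. coli surface as eCPX fusions, selected cells deep-sequenced, score is each peptide's frequency after selection divided by its frequency in the input.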
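Throughout, for phosphorylation enrichment, bacterial display: 11-residue human phosphosite peptides and single-mutation variants displayed on the E. coli surface, counted by deep sequencing, each peptide's frequency after selection divided by its frequency in the unselected input library; frequency after pTyr selection over input frequency; kinase dosed for 20-30% of maximal phosphorylation in three min.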

Sequence	SH2 binding enrichment [1]	SH2 binding enrichment [2]	SH2 binding enrichment [3]	phosphorylation enrichment [4]	phosphorylation enrichment [5]	phosphorylation enrichment [6]	phosphorylation enrichment [7]	phosphorylation enrichment [8]	phosphorylation enrichment [9]	phosphorylation enrichment [10]	phosphorylation enrichment [11]	phosphorylation enrichment [12]	phosphorylation enrichment [13]	phosphorylation enrichment [14]	phosphorylation enrichment [15]	phosphorylation enrichment [16]
TLRKTYGEMAD [ALB_Y108_E106K]	0.537	0.788	0.449	0.419	0.307	0.387	0.355	0.379	0.508	0.433	0.752	0.535	0.462	0.381	0.51	0.709
TRSYDYMEGGD [FGF7_Y58]	0.538	0.871	6.41	0.447	0.58	0.458	0.593	0.456	0.486	0.488	0.802	1.02	0.586	0.45	0.731	1.03
TTICKYITPME [GUCY2C_Y839_S840I]	0.598	0.73	0.661	0.458	0.485	0.418	0.466	0.417	0.558	0.469	0.728	0.99	0.56	0.421	0.56	0.873
TVDASYYGGRG [ANTXR2_Y380]	0.424	0.763	0.604	0.642	0.411	0.73	0.503	0.559	0.546	1.14	0.609	0.512	0.576	0.495	0.561	0.66
TYGVVYKARNK [CDK2_Y19]	0.253	0.788	0.548	1.33	0.369	1.81	0.563	0.46	0.354	1.47	0.485	1.18	0.272	0.41	0.515	0.691
TYVKSYTIHYS [F5_Y2153_M2148T]	0.783	0.791	0.652	0.44	0.594	0.508	0.722	0.568	0.4	0.567	0.633	1.27	0.625	0.483	0.696	1.15
VDASYCGGRGV [ANTXR2_Y381_Y381C]	0.331	0.62	0.382	0.476	0.373	0.676	0.28	0.48	0.405	0.342	0.573	0.712	0.519	0.559	0.463	0.63
VDASYYGGRGV [ANTXR2_Y381]	0.638	0.738	0.471	0.999	0.708	0.786	0.386	0.46	0.772	1.92	0.804	0.702	0.698	0.775	0.647	0.665
VDGFVYKLHPS [GCK_Y413_S411F]	0.55	0.693	0.519	0.643	0.434	0.53	0.484	0.368	0.407	0.419	0.999	0.844	0.562	0.288	0.55	0.962
VGEGPYLISDL [ABCC12_Y7]	0.663	0.786	0.414	0.752	0.65	0.507	0.5	0.578	0.466	0.483	1.05	0.952	0.768	0.468	0.734	1.01
VIKDKYPKAHY [APTX_Y209_R213H]	1.11	1.19	0.956	0.377	0.268	0.278	0.359	0.358	0.34	0.273	0.579	0.449	0.561	0.285	0.505	0.599
VIKDKYPKVRF [APTX_Y209_A212V_YF]	1.4	1.4	1.04	0.452	0.4	0.278	0.373	0.448	0.444	0.443	0.734	0.493	0.56	0.4	0.599	0.591

Further lines, with some results ahead:

SH2 binding enrichment [1]	SH2 binding enrichment [2]	SH2 binding enrichment [3]	Sequence	phosphorylation enrichment [4]	phosphorylation enrichment [5]	phosphorylation enrichment [6]	phosphorylation enrichment [7]	phosphorylation enrichment [8]	phosphorylation enrichment [9]	phosphorylation enrichment [10]	phosphorylation enrichment [11]	phosphorylation enrichment [12]	phosphorylation enrichment [13]	phosphorylation enrichment [14]	phosphorylation enrichment [15]	phosphorylation enrichment [16]
0.876	1.01	3.56	TMETKYDNISR [SETDB2_Y477_V473M]	0.429	0.356	0.414	0.424	0.403	0.678	0.431	0.808	0.652	0.665	0.469	0.474	0.689
0.642	0.791	0.544	TNGFTCGSSHQ [MANEA_Y331_Y331C]	0.392	0.451	0.618	0.486	0.412	0.46	0.477	0.663	0.608	0.728	0.435	0.545	0.836
1.04	0.847	1.7	TQPSPYAVYRF [RPGRIP1_Y823]	10.1	1.22	11.5	1.84	9	0.794	7.95	0.898	0.912	22.2	8.69	0.795	0.834
0.7	0.947	0.65	TQRPFYKGGGG [TYROBP_Y112_YF]	0.403	0.221	0.314	0.31	0.331	0.346	0.42	0.451	0.48	0.624	0.331	0.438	0.512
0.518	0.684	0.528	TSEASYYKSLN [NGEF_Y288]	0.49	0.575	0.464	0.498	0.464	0.516	0.407	0.802	0.743	0.658	0.535	0.707	0.789
0.465	0.685	0.36	TSPALYRLDLD [TRIL_Y352_A347T]	1.44	0.567	0.74	0.51	0.499	0.529	0.817	0.859	0.943	0.741	0.395	0.721	1.24
0.769	0.959	3.03	TVETKYDNISR [SETDB2_Y477]	0.461	0.71	0.519	0.379	0.433	0.545	0.477	0.667	0.72	0.643	0.393	0.553	0.745
1.46	1.9	1.26	TVNIRYLLFPS [SERAC1_Y548_S543T]	0.434	0.728	0.577	0.725	0.564	0.578	0.574	1.11	1.21	0.716	0.606	0.829	1.21
0.932	0.946	0.545	VDSTEYEVASQ [SLC7A7_Y7]	0.514	0.632	0.499	0.646	0.598	0.544	0.549	1.04	1.25	0.825	0.436	0.776	1.16
0.501	0.764	0.498	VECQVYAEDPF [PCCA_Y401_R399Q_YF]	0.602	0.6	0.52	0.548	0.663	0.446	0.587	0.99	1.22	0.748	0.408	1.16	1.24
0.666	0.877	0.504	VEDPEYAVTQP [STOML2_Y124_L129P]	0.58	0.567	0.543	0.602	0.664	0.646	0.608	1.32	1.54	1	0.473	0.848	1.33
0.454	0.708	0.633	VEKEKYVSFIS [JMJD1C_Y596_M591V_YF]	0.396	0.467	0.477	0.52	0.36	0.493	0.577	0.755	0.762	0.521	0.408	0.793	0.796
0.864	0.902	0.738	VFDHIYTTQSD [RET_Y928_L923V]	2.41	0.458	2.12	0.467	0.443	0.55	1.14	0.671	0.978	0.44	0.579	0.682	0.871
0.77	1.04	0.572	VFFDLYGGEKF [PTPN11_Y66_D61V_YF]	2.04	0.803	1.42	0.596	0.509	0.443	2.08	0.835	1.03	0.914	0.517	0.598	1.11
0.896	0.982	0.616	VFFFSYLLKNH [PTEN_Y180_YF]	0.426	0.559	0.373	0.519	0.537	0.643	0.391	1.11	1.06	0.918	0.362	0.729	1.57
0.887	0.653	0.453	VGGRIYTDDGL [PKLR_Y218_I219T]	0.306	0.412	0.427	0.592	0.463	0.427	0.426	0.595	0.768	0.629	0.37	0.612	0.921
0.692	0.918	0.568	VGTTAYMAPEA [IRAK4_Y354]	0.414	0.385	0.407	0.379	0.452	0.418	0.434	0.689	0.707	0.537	0.354	0.517	0.893
